Target: human plasma membrane Ca2+-ATPase 1, full-length human PMCA1d (human) (UniProt P20020)
Sequence of UniProt P20020 (P20020 other isoform, or with tags, fused parts or gaps): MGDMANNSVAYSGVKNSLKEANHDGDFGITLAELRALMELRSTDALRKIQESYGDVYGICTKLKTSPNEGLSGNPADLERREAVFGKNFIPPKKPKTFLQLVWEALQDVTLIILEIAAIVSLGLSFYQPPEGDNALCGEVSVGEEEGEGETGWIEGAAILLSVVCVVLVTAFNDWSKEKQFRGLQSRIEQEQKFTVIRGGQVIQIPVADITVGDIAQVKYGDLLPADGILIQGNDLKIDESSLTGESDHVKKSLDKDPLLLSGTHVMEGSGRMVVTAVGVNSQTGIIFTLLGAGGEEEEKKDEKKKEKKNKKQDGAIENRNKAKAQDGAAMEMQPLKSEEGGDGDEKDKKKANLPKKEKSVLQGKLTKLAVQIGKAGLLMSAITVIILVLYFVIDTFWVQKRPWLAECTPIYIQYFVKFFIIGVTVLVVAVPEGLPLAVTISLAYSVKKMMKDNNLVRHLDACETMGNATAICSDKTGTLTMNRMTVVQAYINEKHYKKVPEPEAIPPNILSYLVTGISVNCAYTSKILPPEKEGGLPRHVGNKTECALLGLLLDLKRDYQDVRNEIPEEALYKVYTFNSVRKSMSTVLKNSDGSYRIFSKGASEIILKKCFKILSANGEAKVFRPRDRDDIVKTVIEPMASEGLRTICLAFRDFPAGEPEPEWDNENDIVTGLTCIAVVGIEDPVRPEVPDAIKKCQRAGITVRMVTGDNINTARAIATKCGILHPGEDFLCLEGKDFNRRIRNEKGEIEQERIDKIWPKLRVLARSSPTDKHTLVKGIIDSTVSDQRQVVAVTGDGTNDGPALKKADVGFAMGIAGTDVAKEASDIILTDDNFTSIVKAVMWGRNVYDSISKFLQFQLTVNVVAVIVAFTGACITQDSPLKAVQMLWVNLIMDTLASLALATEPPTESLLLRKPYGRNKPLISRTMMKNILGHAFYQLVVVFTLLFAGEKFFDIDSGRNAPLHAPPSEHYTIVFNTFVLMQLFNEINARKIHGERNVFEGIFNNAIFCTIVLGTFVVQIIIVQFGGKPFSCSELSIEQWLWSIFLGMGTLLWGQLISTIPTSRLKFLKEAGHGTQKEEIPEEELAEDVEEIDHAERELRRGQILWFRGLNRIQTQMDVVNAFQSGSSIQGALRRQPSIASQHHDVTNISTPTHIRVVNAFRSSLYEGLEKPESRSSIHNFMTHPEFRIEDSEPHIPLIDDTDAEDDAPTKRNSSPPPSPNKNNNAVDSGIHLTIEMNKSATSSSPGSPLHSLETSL

Vmax of the ATPase activity of purified hPMCA1-NPTN proteins (nmol mg^-1 min^-1): 326
Substance: neuroplastin (natural protein)

From publication PMC6127144
